Assay results from the RNAGym collection of RNA variant scans (doi:10.1073/pnas.2313332121).

B1: TPR t1 (parent)
chain: GACCAAUCUGCCCUCAGAGCUCGAGAACAUCUUCGGAUGCAGAGGAGGCAGGCUUCGGUGGCGCGAUAGCGCCAACGUCCUCAACCUCCAAUGCAUCCCACCACAUGAUGAUGCCUGAAGAGCCUUGGUUUUUUG

Variants of: B1
Experiment: polymerase ribozyme fitness, log enrichment relative to wild type (log ratio); higher = more active; in vitro selection for triplet polymerase activity
Method in brief: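 Each subunit of a heterodimeric triplet polymerase ribozyme was mutagenized into a library by PCR, transcribed, and subjected to one round of in vitro selection, run in triplicate. Libraries were annealed with a biotinylated primer, the partner subunit and triplets, incubated frozen at −7 °C, and extended constructs were gel-excised, captured on streptavidin beads and recovered by RT-PCR. Input and output libraries were sequenced on Illumina, keeping genotypes with ≥10 input reads and ≥1 read per output. Fitness is log base 2 of genotype enrichment divided by wild-type enrichment, from inverse-variance-weighted replicate averages.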

| Variant | polymerase ribozyme fitness (log ratio) |
| --- | --- |
| GACCAAUCUUCCCUCAGAGCUCGAGUACAUCUUCGGAUGCAAAGGAGGCAGGCUUCGGUGGCGCGAUAGCGCCAACGUCCUCAACCUCCAAUGCAUCCCACCACAAGAUGAUGCCUGAAGAGCCGUGGUUUUUUG [G10U A26U G42A U106A U125G] | -4.36 |
| GACCAAUCUUCCCUCAGAGCUCGAGUACAUCUUCGGAUGCAGAGGAGGCAGGCUUCGGUGGCGCGAUAGCGCCAACGUCCUCAACCUCCAAUGCAUCCCACCACAUGAUGAUGCCUGAAGAGCCUUGGUUUUUUG [G10U A26U] | -2.52 |
| GACCAAUCUUCCCUCAGAGCUCGAGAACAUCUUCGGAUGCCGAGGAGUCAGGCUUCGGUGGCGCGAUAGCGCCAACGUCCUCAACCUCCAAUGCAUCCCACCACAUGAUGAUCCCUGAAGAGCCUUGGUUUUUUG [G10U A41C G48U G113C] | -3.37 |
| GACCAAUCUUCCCUCAGAGCUCGAGAACUUCUUCGGAUGCAGAGGAGGCAGGCUUCGGUGGCGCGAUAGCGCCAACGUCCUCAACAUCCAAUGCAUCCCACCACAUGAUGACGCCUGAAGAGCCUUGGUUUUUUG [G10U A29U C86A U112C] | -1.11 |
| GACCAAUCUUCCCUCAGAGCUCGAGAACCUCUUCGGAUGCAGAGGAGGCAGGCUUCGGUAGCGCGAUAGCGCCAACGUCCUCAACCUCCAAUGCAUCCCACCACAUGAUGAUGCCUGAAGAGCCUUGGUUUUUUG [G10U A29C G60A] | -3.27 |
| GACCAAUCUUCCCUCAGAGCUCGAGAACUUCUUCGGAUGCAGAGGAGGCAGGCUUCGGUGGCGCGAUAGGGCCAACGUCCUCAACCUCCAAUGCAUCCCACCACAUGAUGAUACCUGAAGAGCCUUGGUUUUUUG [G10U A29U C70G G113A] | -4.17 |
| GACCAAUCUUCCCUCAGAGCUCGAGAACAUCUUCGGAUGCAGCGGAGGCAGGCUUCGGUGGCGCGAUAGCGCCAAUGUCCUCAACCUCCCAUGCAUCCCACCACAUGAUGAUGCAUGAAGAGCCUUGGUUUUUUG [G10U A43C C76U A90C C115A] | -2.83 |
| GACCAAUCUUCCCUCAGUGCUCGAGAACUUCUUCGGAUGCAGAGGAGGCAGGCAUCGGUGGCGCGAUAGCGCAAACGUCCUCAACCUCCAAUGCAUCCCACCACAUGAUGAUGCCUGAAGCGCCUUGGUUUUUUG [G10U A18U A29U U54A C73A A121C] | -1.7 |
| GACCAAUCUUCCCUCAGAGCUCGAGACCAUCUUCGGAUGCAGACGAGGCAGGCUUCGGUGGCGCGAUAUCGCCAACGUCCUCAACCUGCAAUACAUCCCACCACAUGAUGAUGACUGAAGAGCCUUGGUUUUUUG [G10U A27C G44C G69U C88G G93A C114A] | -6.93 |
| GACCAAUCUUCCCUCAGAGCUCGAGCACAUCUUCGGAUGCAGAGGAGGCAGGCUUCGGUGGCGCGAUAGCGCCGACGUCCUCAACCUCCUAUGCAUCCCACCACAUGAUGAUGCCUGAAAAGCCUUGGUUUUUUG [G10U A26C A74G A90U G120A] | -5.63 |
| GACCAAUCUUCCCUCAGAGCUCGAGAUCAUCUUCGGAUGCAGAGGAGGCAGGCUUCGGUGGCGCGAUAGCGCCAACGUCCUCAACCUCCAAUGCAUCCCACCACAUGAAGAUGCCUGAAGAGCCUUGGUUUUUUG [G10U A27U U109A] | -4.99 |
| GACCAAUCUUCCCUCAGAGCUCGAGAACAUCUUCGGCUGCAGAGGAGGCAGGGUUCGGUGGCGCGAUAGCGCCAACGUCCUCAACCUCCAAUGCGUCCCACCACAUGAUGAUGCCUGAAGAGCCUUGGUUUUUUG [G10U A37C C53G A95G] | -0.638 |
| GACCAAUCUUCCCUCAGAGCUCGAGAACAUCUUCGGCUGCAGAGGAGGCAGGCUUCGGUGGCGCGAUAGCGCCAACGUCCUCAAACUCCAAUGCAUCCCACCACAUGAUGAUGCCUGAAGAGCCUUGGUUUUUUG [G10U A37C C85A] | -1.32 |
| GACCAAUCUUCCCUCAGGGCUCGAGAACAUCUUCGGUUGUAGAGGAGGCAGGCUUCGGUGGCGCGAUAGCGCCAACGUCCUCAACCUCCAAUGCAUCCCACCACAUGAUGAAGCCUGAAGAGCCUCGGUUUUUUG [G10U A18G A37U C40U U112A U126C] | -1.57 |
| GACCAAUCUUCCCUCUGAGCUCGAGAACAUCUUCGGAUGCAGAGGAGGCAGGCUUCGGUGGCGCGAUAGCGUCAACGUACUCAACCUCCAAUGCAUCCCACCACAUGAUGAUGGCUGAAGAGACUUGGUGUUUUG [G10U A16U C72U C79A C114G C123A U130G] | -6.07 |
| GACCAAUCUUCCCUCAGAGCUCGAGAACAUCUUCGGAUGCAGUGGAGGCAGGCUUCGGUGGCGCGAUAGCGCGAACGUCCUCAACCUCCAAUGCAUCCCACCACAUGGUGAUGCCUGAAGAGCCUUGGUUUUUUG [G10U A43U C73G A108G] | -6.59 |
| GACCAAUCUUCCCUCAGAGCUCGAGAGCAUCUUCGGAUGCAGAGGAGGCAGGCUUCGGUGGCGCGAUAGCGCCAACGUCCUCAACCUCCAAUGCAUCCCACCACAUGAUGAUGCCUGAAGAGCCUUGGUUUUUUG [G10U A27G] | -0.702 |
| GACCAAUCUUCCCUCAGAGCUCGAGAACAUCUUCGGAUGCCGAGGAGGCAGGCUUCGGUGGCGCGAUAGCGCCAACGUCCUCAACCUCCAUUGCAUCCCACCACAUGAUGAUGCCUGAACAGCCUUGGCUUUUUG [G10U A41C A91U G120C U129C] | -1.99 |
| GACCAAUCUUCCCUCAGAGCUCGAGAACAUCUUCGGUUGCAGAGGAGGCAGGCUUCGGUGGCGCGAUAGCGCCAACGUCCUCAACCUCCAAUGCAUCCCACGACAUGAUGAUGCAUGAAGAGCCUUGGUUUUUUG [G10U A37U C102G C115A] | -6.5 |
| GACCAAUCUUCCCUCAGAGCUCGAGAACUUCUUCGGAUGCAGAGGAGGCAGGGUUCGGUGGCGCGAUAGCGCCAACGUCCUCAACCUCCAAUGCAUCCCACCACAUGAUGAUGCCUGAAGAGCCUUGGUUUUUUG [G10U A29U C53G] | -2.58 |
| GACCAAUCUCCCCUCAGAGCUCGAGAACAUCUUCGGAUGCAGAGGAGGCAGGCUUCGGUGGCGCGAUAGCGCCAACGUCCUCAACCUCCAAUGCAUCCCACCACAUGAAGAUGCCUGAAGAGCCUUGGUUUUUUG [G10C U109A] | -6.66 |
